Biological target: T1, AIRE-PHD1 P326L mutant (human, UniProt O43918 293-346, P326L)
T1 sequence (looked up): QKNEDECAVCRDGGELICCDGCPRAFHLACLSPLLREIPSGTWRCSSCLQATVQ
Assay: NMR titration

## ARTKQTARKST (peptide, UniProt P68431 2-12, looked up) [unmodified histone H3 peptide (residues 1-11)]
  binding result: binds

From publication PMC2923636 (Structure (London, England : 1993), 2009)
